Reference: article PMC10382551, “Affinity-matured homotypic interactions induce spectrum of PfCSP structures that influence protection from malaria infection” (Nature Communications, 2023)
Ends that are not written are not given here.

T1: NPNA4 peptide, biotinylated at the C-terminus (BLI) (Plasmodium falciparum (isolate 3D7).)
T1 construct: source: synthetic peptide (InnoPep Inc)
T1 chain: NPNANPNANPNANPNA-biotin

T2: NPNA8 peptide (Plasmodium falciparum (isolate 3D7)., not fully specified)
T2 construct: source: synthetic peptide (InnoPep Inc, purity >=97%)
T2 chain: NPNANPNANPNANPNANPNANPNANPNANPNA

T3: NPNA4 peptide (Plasmodium falciparum (isolate 3D7)., not fully specified)
T3 construct: source: synthetic peptide (InnoPep Inc, purity >=97%)
T3 chain: NPNANPNANPNANPNA

T4: NPNA8 peptide (used for cryo-EM with Fab 227) (Plasmodium falciparum, not fully specified)
T4 construct: source: synthetic peptide (InnoPep Inc)
T4 chain: T2 chain

B1: Fab 356R, germline-reverted mutant of 356 (Fab, V domains shown)
VH: QVQLVESGGGVVQPGRSLRLSCAASGFTFSSYGMHWVRQTPGKGLEWVAVIWHDGSNKFYADSVKGRFTISRDNSKNMIYLQMNSLRVEDTAIYYCARDSLFYDHDNSGYYGYWGQGTLVTVSS
VL: EIVMTQSPATVSVSPGERATLSCRASQSVTSKLAWYQQKPGQAPRLLIYGASTRATGIPARFSGSGSGTEFTLTISSLQSEDFAVYFCQQYNNGFTFGPGTKVDFK
notes: source: ExpiCHO cells, purified (mAb Select PrismA or Capture Select, SEC)
B2: 311R Fab (Fab, V domains shown)
VH: QVQLVESGGGVVPPGRSLRLSCATSGFTFSSYGMHWVRQAPGKGLEWVAIIWYDGSNKFYAASVKGRFTISRDNSKNTLYLQMNSLRVEDTAVYYCARAAYYDTSGYGDYWGQGTLVTVSS
VL: QSVLTQPPSVSGAPGQTVTISCTGGSSNIGAGYDVHWYQQLPGTAPKLLIYGNINRPSGVPDRFSGSKSGTSASLAITGLQAEDEADYYCQSYDSSLSGSWVFGGGTKLTVL
notes: also called Fab311R; germline-reverted 311; source: ExpiCHO cells, purified (mAb Select PrismA or Capture Select, SEC)
B3: Fab of mAb 227 (Fab, V domains shown)
VH: QVQLVQSGGGVVQPGRSLRLSCVTSGFTFPAFGMHWVRQAPGKGLEWVAVIWYDGSKKYYADSVRGRFTISRDNSRNTLYLQMHSLRAEDTAVYYCARVKNYESSGYSQCLDYWGQGVLVTVAS
VL: QSVLTQPPSVSGAPGQRVTISCTGSSSNIGAGYDVHWYQQLPGTAPKLLIYGNGNRPSGVPDRFSGSKSGTSVSLAITGLQAEDEADYYCQSYDSSLSAFVFGTGTKVTVL
notes: also called 227 Fab; source: ExpiCHO cells, purified (mAb Select PrismA or Capture Select, SEC)
B4: Fab 239R, germline-reverted mutant of 239 (Fab, V domains shown)
VH: QVQLVESGGGVVQPGRSLRLSCAASRLTFSSYGMHWVRQTPGKGLEWVAVIWHDGSNKFYADSVKGRFTISRDNSKNTLYLQMNSLRDEDTAIYYCAKDWGGASDRVFDYWGRGTLVIVSS
VL: DIQMTQSPSTLSASVGDRVTITCRASQSVSTSLAWYQQKPGKAPNLLIYQASTLYTGVPSRFSGSGSGTEFTLTIGSLQPDDFATYYCQHYNSYSRITFGQGTRLEIK
notes: as for B1
B5: 239R Fab (Fab, V domains shown)
VH: B4 VH
VL: B4 VL
notes: also called Fab239R; 239 FabR; source: ExpiCHO cells, purified (mAb Select PrismA or Capture Select, SEC)

What was measured:
Conditions in all cases: both partners purified
[1] = molecular target: T1, NPNA4 peptide, biotinylated at the …; assay: BLI
NPNA8 peptide = molecular target: T2, NPNA8 peptide; assay: BLI
NPNA4 peptide = molecular target: T3, NPNA4 peptide; assay: BLI
[2] = molecular target: T4, NPNA8 peptide (used for cryo-EM with …); assay: cryo-EM structure; saturating amounts of Fab incubated with rsCSP (or NPNA8 for Fab 227) overnight at 4 °C, complex purified by SEC (Superose 6 Increase, TBS), single particle cryo-EM
[3] = molecular target: T4, NPNA8 peptide (used for cryo-EM with …); assay: as above

Row | Binder | Kd (NPNA8 peptide) | Kd (NPNA4 peptide) | further results
1 | B1 | – | – | fold change of apparent affinity against 356 [1]: ~2 fold
2 | B2 | 401 nM | 131 nM | –
3 | B3 | – | – | stoichiometry N [2]: 8 Fabs bound; stoichiometry N [3]: 4 Fabs per NPNA8 disc
4 | B4 | – | – | fold change of apparent affinity against 239 [1]: ~2 fold
5 | B5 | 205 nM | 165 nM | –
